B1: Transcription factor ATOH7 (Homo sapiens), Q8N100 (parent)
chain: MKSCKPSGPPAGARVAPPCAGGTECAGTCAGAGRLESAARRRLAANARERRRMQGLNTAFDRLRRVVPQWGQDKKLSKYETLQMALSYIMALTRILAEAERFGSERDWVGLHCEHFGRDHYLPFPGAKLPGESELYSQRLFGFQPEPFQMAT
partner: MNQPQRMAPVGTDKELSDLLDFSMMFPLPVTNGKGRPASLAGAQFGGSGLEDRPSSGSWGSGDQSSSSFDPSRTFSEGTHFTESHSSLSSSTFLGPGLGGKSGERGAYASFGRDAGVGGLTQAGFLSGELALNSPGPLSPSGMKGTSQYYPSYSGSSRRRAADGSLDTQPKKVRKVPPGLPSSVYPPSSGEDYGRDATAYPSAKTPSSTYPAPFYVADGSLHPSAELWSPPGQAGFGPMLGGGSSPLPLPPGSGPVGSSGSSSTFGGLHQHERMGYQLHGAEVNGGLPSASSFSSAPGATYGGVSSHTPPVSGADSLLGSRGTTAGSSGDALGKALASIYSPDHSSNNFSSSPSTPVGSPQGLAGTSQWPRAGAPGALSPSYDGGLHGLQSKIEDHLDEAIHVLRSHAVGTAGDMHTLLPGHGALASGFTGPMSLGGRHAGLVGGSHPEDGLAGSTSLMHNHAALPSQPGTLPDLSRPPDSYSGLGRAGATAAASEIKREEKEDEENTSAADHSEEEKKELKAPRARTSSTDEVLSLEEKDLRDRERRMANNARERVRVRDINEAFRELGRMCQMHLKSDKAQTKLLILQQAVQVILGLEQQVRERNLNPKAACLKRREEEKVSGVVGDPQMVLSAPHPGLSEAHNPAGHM

Variants of: B1
Settings: with TCF3, P15923-2

Row | Variant | effect of a mutation on the interaction
1 | A59G | decreasing interaction strength
2 | N46H | disrupting interaction strength

Second part, the variant after the results:

Row | effect of a mutation on the interaction | Variant
3 | disrupting interaction strength | A59T
4 | disrupting interaction strength | A59V

Source: IntAct's records for PubMed 31696227
